Test results as given in patent publication US20220235144A1 (QILU PUGET SOUND BIOTHERAPEUTICS, published 2022).
Where two headings read alike, the source gives them in different places.

Tests used:
[1] = molecular target: T1, cSIRPαV2D1 with histidine tag (cynomolgus monkey (Macaca fascicularis), UniProt Q5TFQ8 30-146 (human entry)); test: SPR (Biacore 3000), IgG captured on anti-human IgG, His-tagged D1 analyte
T1 construct: also called cynomolgus monkey SIRPαV2D1; not shown: histidine tag
T1 chain: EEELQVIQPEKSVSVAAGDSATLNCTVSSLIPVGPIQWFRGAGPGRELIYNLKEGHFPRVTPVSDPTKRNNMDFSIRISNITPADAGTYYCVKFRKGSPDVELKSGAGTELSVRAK
Description: (§1) Goat anti-human IgG capture antibody (Jackson Laboratories; 109-005-098) was immobilized on the four flow cells in each sensor chip using standard amine coupling chemistry. About 8000 resonance units (RU) of this antibody was immobilized on each flow cell. Flow cells 2, 3, and 4 were used to analyze captured anti-SIRPα antibodies (about 250 to 300 RU were captured on each of flow cells 2, 3, and 4), while flow cell 1 was used as the reference flow cell. The analytes tested were hSIRPαV1D1, hSIRPαV2D1, cynomolgus monkey SIRPαV1D1 (cSIRPαV1D1), cSIRPαV2D1, hSIRPβ1D1, and hSIRPγD1, each of which also included a histidine tag. The sequences of cSIRPαV1D1 and cSIRPαV2D2 are provided in SEQ ID NOs: 143 and 142, respectively. To avoid confusion, the differences between the amino acid sequences of cSIRPαV1D1 and cSIRPαV2D1 are not the same as the differences between the amino acid sequences of hSIRPαV1D1 and hSIRPαV2D1. […] The amino acid sequence of hSIRPβ1D1 can be found in amino acids 30-148 of SEQ ID NO: 144, and the amino acid sequence of hSIRPγD1 can be found in amino acids 31-149 of SEQ ID NO: 141.
(§2) Generally, concentrations from about 0.1×KD to about 10×KD are appropriate for kinetic analysis. From one to six different concentrations were evaluated for each antibody:analyte interaction, depending on the comparisons to be made in an individual experiment. All analyte dilutions were prepared in HPS-EP buffer. Multiple blank (running buffer) injections were run and used to assess and subtract system artifacts. The association phase and dissociation phase for all analyte concentrations were monitored for 180 seconds and 300 seconds, respectively, at a flow rate of 50 μL/min. Between antibody samples, the surfaces of the flow cells were regenerated with 10 mM glycine, pH 1.5 using two injections, each lasting 12 seconds at a flow rate of 50 μL/min.
(§3) The data were analyzed using BIAevaluation software (Biacore, General Electric (GE)). The data was fit using the 1:1 Langmuir model.

[2] = molecular target: T2, hSIRPαV1D1 with histidine tag (human, UniProt P78324 31-147); test: as above
T2 construct: analyte of the Biacore experiments; also called first immunoglobulin-like domain of human SIRPα variant V1; not shown: histidine tag
Description: as §1, §2, §3

[3] = molecular target: T3, hSIRPαV2D1 with histidine tag (human); test: as above
T3 construct: analyte of the Biacore experiments; also called first immunoglobulin-like domain of human SIRPα variant V2; not shown: histidine tag
Description: as §1, §2, §3

[4] = molecular target: T4, hSIRPβ1D1 with histidine tag (human, UniProt O00241 30-148); test: as above
T4 construct: analyte of the Biacore experiments; also called hSIRPβD1; not shown: histidine tag
Description: as §1, §2, §3

[5] = molecular target: T5, cSIRPαV1D1 with histidine tag (cynomolgus monkey (Macaca fascicularis), UniProt Q5TFQ8 30-146 (human entry)); test: as above
T5 construct: also called cynomolgus monkey SIRPαV1D1; not shown: histidine tag
T5 chain: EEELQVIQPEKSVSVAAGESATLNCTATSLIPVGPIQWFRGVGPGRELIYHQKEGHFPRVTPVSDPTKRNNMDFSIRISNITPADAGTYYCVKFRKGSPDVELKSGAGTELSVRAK
Description: as §1, §2, §3

[6] = molecular target: T6, hSIRPγD1 with histidine tag (human, UniProt Q9P1W8 31-149); test: as above
T6 construct: also called first immunoglobulin-like domain of human SIRP Gamma; not shown: histidine tag
Description: as §1, §2, §3

[7] = molecular target: T7, hSIRPαV2 expressed on the cell surface (human, UniProt P78324 31-504); test: FACS competition on EXPI293 cells stably expressing hSIRPαV2: biotinylated hCD47:Fc (2.5 µg/ml) mixed with serial dilutions of the antibody, bound hCD47:Fc detected with streptavidin-PE (MFI); blocked ligand: hCD47:Fc
T7 construct: whole, on cells; also called human SIRPα variant V2
Experimental: (§4) The x axes show the antibody concentration in μg/ml. The y axes show mean fluorescence intensity (MFI) at about 572 nm (due to binding of biotinylated CD47:Fc, detected by a streptavidin-phycoerythrin conjugate).
(§5) Some of the anti-SIRPα antibodies described above were tested in vitro for their ability to inhibit binding of CD47 to hSIRPαV1 or hSIRPαV2 expressed on the surface of EXPI293™ cells stably transfected with DNA encoding these proteins. Briefly, stable transfectants expressing hSIRPαV1 or hSIRPαV2 were seeded into 96-well microtiter plates. […] After 30 minutes incubation, cells were washed, streptavidin-phycoerythrin (streptavidin-PE) was added, and cells were subjected to FACS to detect bound hCD47:Fc. Results were reported as a mean fluorescence intensity (MFI) using FlowJo software (FLOWJO, L.L.C., Ashland, Oreg., USA). FIGS. 4 and 5 show the MFI detected on the y axes of both panels and the antibody concentration on the x axes of both panels.

[8] = molecular target: T8, hSIRPαV1 expressed on the cell surface (human, UniProt P78324 31-504); test: FACS competition on EXPI293 cells stably expressing hSIRPαV1: biotinylated hCD47:Fc (2.5 µg/ml) mixed with serial dilutions of the antibody, bound hCD47:Fc detected with streptavidin-PE (MFI); blocked ligand: hCD47:Fc
T8 construct: also called human SIRPα variant V1
Experimental: as §4, §5

[9] = molecular target: T7, hSIRPαV2 expressed on the cell surface; test: FACS competition: inhibition of biotinylated hCD47:Fc (2.5 µg/ml) binding to EXPI293 cells expressing hSIRPαV2, FIG. 5A
Experimental: (§6) The x axes show the antibody concentration in μg/ml. The y axes show mean fluorescence intensity (MFI) at about 572 nm.
as §5

[10] = molecular target: T8, hSIRPαV1 expressed on the cell surface; test: FACS competition on EXPI293 cells stably expressing hSIRPαV1: biotinylated hCD47:Fc (2.5 µg/ml) mixed with serial dilutions of the antibody, bound hCD47:Fc detected with streptavidin-PE (MFI); blocked ligand: hCD47:Fc; remark: listed apart in the source
Experimental: as §6, §5

[11] = molecular target: T7, hSIRPαV2 expressed on the cell surface; test: flow cytometry on primary human monocytes (FSC/SSC gate) in PBMCs expressing only SIRPαV2, antibody detected with APC-(Fab)2 goat anti-human IgG Fc (MFI at about 670 nm)
Experimental: FIG. 6: Binding of anti-SIRPα antibodies to T cells and monocytes. Methods are described in Example 4. […] The x axes show the antibody concentration in μg/ml. The y axes show mean fluorescence intensity (MFI) at about 670 nm (due to binding of allophycocyanin (APC)-conjugated (Fab)₂ goat anti-human IgG Fc-specific secondary antibody).
Some of the anti-SIRPα antibodies were tested in vitro for binding to primary T cells and monocytes in peripheral blood mononuclear cells (PBMCs). Briefly, PBMCs that expressed only SIRPα V2 were seeded in 96-well microtiter plates. Serial dilutions of anti-SIRPα antibodies were incubated with the cells on ice for 30 minutes. […] The cells were then subjected to FACs. T cells were gated based on their anti-CD4 or anti-CD8 binding (detected by FITC fluorescence), since T cells commonly express either CD4 or CD8. Monocytes were gated based on their forward scatter/side scatter (FSC/SSC) profile, since a characteristic FSC/SSC profile can identify monocytes. See, e.g., Marimuthu et al., Characterization of human monocytes subsets by whole blood flow cytometry analysis, J. Vis. Exp. (140), e57941, doi:10.3791/57941 (2018). The binding of anti-SIRPα antibodies to each population was reported as a mean fluorescence intensity (MFI) of the APC channel (670 nm).

Binder	Kd [1] [nM]	Kd [2] [nM]	Kd [3] [nM]	Kd [4] [nM]	Kd [5] [nM]	Kd [6] [nM]	IC50 (read off the curve) [7] [µg/mL]	IC50 (read off the curve) [8] [µg/mL]	IC50 [9] [µg/mL]	IC50 (read off the curve) [10] [µg/mL]	EC50 (read off the curve) [11] [µg/mL]
Ab1_G4 (antibody, human IgG4 S228P, kappa, V domains shown, human IgG4 format, kappa light chain, made in EXPICHO cells) VH: EVQLVESGGGLVKPGGSLRLSCAASGFTFSSYVMSWVRQTPGKGLEWVATISSGGTYTYYPSSVKGRFTLSRDNAKNSLYLQMNSLRAEDTAVYYCASSLTGSSFDYWGQGTTVTVSS VL: DIVLTQSPASLAVSLGERATISCRASESVDLYGTSFMHWYQQKPGQPPKLLIYRASNLESGVPDRFSGSGSRTDFTLTINPLQAEDVATYYCHQSSDELPWTFGGGTKVEIKR	~399	67.9	3.12	1.39	36.4	244	~0.2	~0.6			
Ab24_G2 (antibody, human IgG2, kappa, like Ab24_G4 but with an IgG2 HC; also called Ab24_IgG2) heavy: EVQLVESGGGLVKPGGSLRLSCAASGFTFSSYVMSWVRQTPGKGLEWVATISSGGTYTYYPDSVKGRFTLSRDNAKNSLYLQMNSLRAEDTAVYYCASQLTGSEFDYWGQGTTVTVSSASTKGPSVFPLAPCSRSTSESTAALGCLVKDYFPEPVTVSWNSGALTSGVHTFPAVLQSSGLYSLSSVVTVPSSNFGTQTYTCNVDHKPSNTKVDKTVERKCCVECPPCPAPPVAGPSVFLFPPKPKDTLMISRTPEVTCVVVDVSHEDPEVQFNWYVDGVEVHNAKTKPREEQFNSTFRVVSVLTVVHQDWLNGKEYKCKVSNKGLPAPIEKTISKTKGQPREPQVYTLPPSREEMTKNQVSLTCLVKGFYPSDIAVEWESNGQPENNYKTTPPMLDSDGSFFLYSKLTVDKSRWQQGNVFSCSVMHEALHNHYTQKSLSLSPGK light: DIVLTQSPASLAVSLGERATISCRASESVDLYGTSFMHWYQQKPGQPPKLLIYRASNLESGVPDRFSGSGSRTDFTLTINPLQAEDVATYYCHQSSDELPWTFGGGTKVEIKRTVAAPSVFIFPPSDEQLKSGTASVVCLLNNFYPREAKVQWKVDNALQSGNSQESVTEQDSKDSTYSLSSTLTLSKADYEKHKVYACEVTHQGLSSPVTKSFNRGEC									0.22	~0.4	
Ab24_4422 PA (antibody, human IgG4 S228P, kappa) heavy: EVQLVESGGGLVKPGGSLRLSCAASGFTFSSYVMSWVRQTPGKGLEWVATISSGGTYTYYPDSVKGRFTLSRDNAKNSLYLQMNSLRAEDTAVYYCASQLTGSEFDYWGQGTTVTVSSASTKGPSVFPLAPCSRSTSESTAALGCLVKDYFPEPVTVSWNSGALTSGVHTFPAVLQSSGLYSLSSVVTVPSSSLGTKTYTCNVDHKPSNTKVDKRVESKYGPPCPPCPAPPVAGPSVFLFPPKPKDTLMISRTPEVTCVVVDVSHEDPEVQFNWYVDGVEVHNAKTKPREEQFNSTFRVVSVLTVVHQDWLNGKEYKCKVSNKGLAAPIEKTISKTKGQPREPQVYTLPPSREEMTKNQVSLTCLVKGFYPSDIAVEWESNGQPENNYKTTPPMLDSDGSFFLYSKLTVDKSRWQQGNVFSCSVMHEALHNHYTQKSLSLSPGK light: DIVLTQSPASLAVSLGERATISCRASESVDLYGTSFMHWYQQKPGQPPKLLIYRASNLESGVPDRFSGSGSRTDFTLTINPLQAEDVATYYCHQSSDELPWTFGGGTKVEIKRTVAAPSVFIFPPSDEQLKSGTASVVCLLNNFYPREAKVQWKVDNALQSGNSQESVTEQDSKDSTYSLSSTLTLSKADYEKHKVYACEVTHQGLSSPVTKSFNRGEC									0.17	~0.3	
Ab11_G4 (antibody, human IgG4 S228P, kappa, V domains shown, human IgG4 format) VH: EVQLVESGGGLVKPGGSLRLSCAASGFTFSSYVMSWVRQTPGKGLEWVATISSGGTYTYYPDSVKGRFTLSRDNAKNSLYLQMNSLRAEDTAVYYCASQLTGSEFDYWGQGTTVTVSS VL: DIVITQSPASLAVSLGERATISCRASESVDSYGNSFMHWYQQKPGQPPKLLIYRASNLESGVPDRFSGSGSRTDFTLTINPLQAEDVATYYCHQSGDLPWTFGGGTKVEIKR	~519	231	3.09	11.1	127	~7310	~0.3				~0.06
